Data on four molecules can be found in patent US20160024208A1 (Regeneron, published 2016).

Substitutions are numbered along the chain they refer to. Ends that are not written are not given here. * marks the point of attachment. Biotin = O=C1N[C@H]2[C@H](CS[C@H]2CCCCC(=O)*)N1 Where only a bound is given, the exact number is not on record here.

A word on the Kd: it is a measure of binding affinity in units of concentration. Lower therefore signals higher affinity.

Assay [1] has as its target T1, full-length human Nav1.7 fused at its N-terminus to GFP, expressed in HEK293 cells (human, UniProt Q15858 1-1988). As to the kind of experiment: cell-based or functional assay.
Assay [2] deals with T2, N-Term Biotin Nav1.7 (3-1) peptide, mouse (mouse, not fully specified; N-terminal biotin attached via a G4S linker).
T2 construct: Synthetic peptide; also called Mouse Nav1.7 3-1 N-term biotin
T2 peptide: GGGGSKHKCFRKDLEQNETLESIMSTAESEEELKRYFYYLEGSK
As to the kind of experiment: ELISA on coated peptide. Here is the method:
(§1) Anti-Naᵥ 1.7 antibodies were tested for their ability to bind to the Naᵥ 1.7 peptides. The various peptides were coated overnight onto 96-well Nunc Immunosorp plates at a concentration of 4 μg/mL in PBS, followed by blocking for 1 hour in a suitable blocking agent. For biotinylated peptides, avidin was first coated on Nunc Immunosorp plates at 2 μg/mL in PBS overnight, followed by blocking as described, and the plate was then coated with biotinylated peptides at a concentration of 0.4 μg/mL and incubated for 1 hour at room temperature. Purified anti-Naᵥ 1.7 antibodies were diluted to a final concentration of 0.1 μg/mL and 1.0 μg/mL and added to the wells of the coated microtiter plates followed by incubation for 1 hour at room temperature. Bound antibodies were detected with horseradish peroxidase (HRP) conjugated anti-mouse or anti-human IgG (Jackson Immuno Research Lab, West Grove, Pa.) depending on the antibody species and developed by colorimetric response using tetramethylbenzidine (TMB) substrate (BD Biosciences). Absorbance was read at OD₄₅₀ on a plate reader for 0.1 second.
(§2) Values in Table 11 represent absolute binding ranges (at OD450) to plate-coated peptides for antibodies added at 1 μg/ml as follows: OD450<0.2: −; 0.2<OD450<1: +; 1<OD450<2: ++; 2<OD450<4: +++; NT: Not Tested.
For orientation: In an ELISA, binding on a coated surface is turned into a signal by an enzyme label.

The target of assay [3] is T3, Native Nav1.7 (3-1) peptide, rat (rat).
T3 construct: Synthetic peptide; also called Rat Nav1.7 3-1 native
T3 peptide: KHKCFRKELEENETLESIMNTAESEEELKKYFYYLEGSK
As to the kind of experiment: ELISA on coated peptide. Here is the method:
as §1, §2

Assay [4] concerns the target T4, Native Nav1.7 (3-1) peptide, human (human).
T4 construct: Synthetic peptide (Celtek), unbiotinylated; also called Human Nav1.7 3-1 native; Nav1.7 3-1 native peptide
T4 peptide: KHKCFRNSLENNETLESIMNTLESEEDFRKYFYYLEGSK
As to the kind of experiment: SPR, captured antibody, peptide analyte. In a few lines: (§3)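 Peptide analytes flowed at multiple concentrations over anti-Nav1.7 antibodies held by an anti-Fc capture surface. After reference-surface and buffer-blank subtraction, a global 1:1 Langmuir fit gave ka and kd, with KD as kd/ka and dissociative half-life as ln2/kd.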
A general note: In SPR one partner is held on a chip, and binding of the other changes the refractive index at the surface.

Assay [5] concerns the target T5, N-Term Biotin Nav1.7 (3-1) peptide, mulatta (mulatta (monkey), not fully specified; N-terminal biotin attached via a G4S linker).
T5 construct: Synthetic peptide; also called Mulatta Nav1.7 3-1 N-term biotin; monkey
T5 peptide: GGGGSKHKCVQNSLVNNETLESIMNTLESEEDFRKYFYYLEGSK
As to the kind of experiment: SPR, captured antibody, peptide analyte. In a few lines:
as §3

In assay [6] the target is T2, N-Term Biotin Nav1.7 (3-1) peptide, …. As to the kind of experiment: SPR, captured antibody, peptide analyte. In a few lines:
as §3

Assay [7] addresses T3, Native Nav1.7 (3-1) peptide, rat. As to the kind of experiment: SPR, captured antibody, peptide analyte. The method in brief:
as §3

The target of assay [8] is T6, C-term Biotin Nav1.7 (3-1) peptide, human (human, not fully specified; C-terminal biotin attached via a G4S linker).
T6 construct: Synthetic peptide; also called Human Nav1.7 3-1 C-term biotin
T6 peptide: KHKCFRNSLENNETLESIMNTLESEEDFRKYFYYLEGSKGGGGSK
As to the kind of experiment: SPR, captured biotin-peptide, antibody analyte.

The target in assay [9] is T5, N-Term Biotin Nav1.7 (3-1) peptide, …. As to the kind of experiment: ELISA on coated peptide, antibody 1 ug/ml, OD450 grade. The method in brief: (§4)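 Binding graded from absorbance at OD450 for antibodies applied at 1 μg/ml (− below 0.2, + 0.2–1, ++ 1–2, +++ 2–4; NT not tested); antibodies were also run at 0.1 μg/mL. Biotin-peptides at 0.4 μg/mL on avidin-coated plates, other peptides at 4 μg/mL; 1 h RT binding; HRP anti-IgG/TMB detection.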

Assay [10] concerns the target T7, N-Term Biotin-Nav1.7 (3-1) peptide, human (human, not fully specified; N-terminal biotin attached via a G4S linker).
T7 construct: ELISA peptide
T7 peptide: T5 peptide with V10F, Q11R, V15E
Described as above. In a few lines:
as §4

Assay [11] addresses T1, full-length human Nav1.7 fused at its …. As to the kind of experiment: flow cytometry; % stained hNav1.7-GFP-HEK293 minus parental HEK293. In a few lines: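 Percent-stained values come from FACS of healthy live cells, taking transfected-cell staining minus parental HEK293 staining. Cells were exposed on ice for 20 min to 1-13 nM antibody, then 20 min to 1.7 nM fluorescent anti-human or anti-mouse Fc secondary.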

Assay [12] addresses T8, Native Nav1.7 (3-3) peptide, human (human).
T8 construct: Synthetic peptide, unbiotinylated; also called Human Nav1.7 3-3 native; Nav1.7 3-3 native peptide
T8 peptide: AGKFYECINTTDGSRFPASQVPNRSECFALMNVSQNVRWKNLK
As to the kind of experiment: SPR, captured antibody, peptide analyte. In a few lines: as §3

For assay [13], the target named is T9, C-Term Biotin Nav1.7 (3-3) peptide, mouse (mouse, C-terminal biotin attached via a G4S linker).
T9 construct: Synthetic peptide; also called Mouse Nav1.7 3-3 C-term biotin
T9 peptide: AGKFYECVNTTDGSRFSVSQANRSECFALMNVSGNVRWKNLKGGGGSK
As to the kind of experiment: SPR, captured antibody, peptide analyte. In a few lines:
as §3

Assay [14] addresses T10, C-Term Biotin Nav1.7 (3-3) peptide, rat (rat, C-terminal biotin attached via a G4S linker).
T10 construct: Synthetic peptide; also called Rat Nav1.7 3-3 C-term biotin
T10 peptide: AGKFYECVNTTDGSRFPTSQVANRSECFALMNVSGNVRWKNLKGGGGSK
As to the kind of experiment: SPR, captured antibody, peptide analyte. The method in brief: as §3

In assay [15] the target is T11, C-term Biotin Nav1.7 (3-3) peptide, human (human, C-terminal biotin attached via a G4S linker).
T11 construct: Synthetic peptide; also called Human Nav1.7 3-3 C-term biotin
T11 peptide: T10 peptide with V8I, T18A, A22P, G35Q
As to the kind of experiment: SPR, captured biotin-peptide, antibody analyte.

Assay [16] has as its target T1, full-length human Nav1.7 fused at its …. As to the kind of experiment: flow cytometry on Nav1.7-GFP-HEK293, antibody 3.3 nM. Here is the method:
The specificity of binding of anti-Naᵥ 1.7 human antibodies to full-length Naᵥ 1.7 expressed in HEK293 cells was determined by peptide competition experiments using flow cytometry.
HEK293 cells stably-transfected with full-length Naᵥ 1.7 fused at its N-terminus to GFP (Naᵥ 1.7-GFP-HEK293) were used for this study. Antibody binding to the transfected cells overexpressing Naᵥ 1.7 was compared to binding in the presence of excess peptide and to binding to the parental HEK293 cell line. To perform the binding experiments, adherent cells were collected using 1 mM EDTA in PBS, washed and re-suspended in cold PBS containing 5% FBS. For each binding experiment the anti-Naᵥ 1.7 antibody at a final concentration of 3.3 nM (in PBS/5% FBS) was added to cells either directly or after incubating for 10 min on ice with a 1000-fold molar excess (3.3 uM final concentration in PBS/5% FBS) of synthetic peptide with sequence corresponding to the loop specificity of the antibody. The antibodies designated as H4H391P, H4H443B, H4H448B, and H1M797N were preincubated as described above with a synthetic peptide corresponding to EC loop 3-1 (amino acid residues 269-338 of SEQ ID NO: 670), whereas the antibodies designated as H4H468P and H1 M852N were preincubated with a synthetic peptide corresponding to EC loop 3-3 (amino acid residues 1333-1382 of SEQ ID NO: 670). The antibody or antibody-peptide mixture was then allowed to incubate with cells for 20 min on ice, followed by addition of 500 uL of cold PBS/5% FBS. Cells were collected by centrifugation, resuspended in 500 uL of cold PBS/5% FBS, and then secondary antibody matched to the antibody isotype (either anti-human-Fc conjugated to Cyanine 5 or anti-mouse-Fc conjugated to allophyococyanin) was added. Binding was detected on the flow cytometry instrument and analyzed as percent binding using the instrument software. For FACS analysis appropriate gating was applied so that only healthy, live cells were counted. Background staining of secondary antibodies alone to Naᵥ 1.7-GFP-HEK293 cells was tested and recorded for all samples, and results ranged between 1-2% binding.
Background: A flow cytometer gives signals particle by particle.

The target of assay [17] is T12, Native Nav1.7 (Paddle) peptide, human (human).
T12 construct: Synthetic peptide, unbiotinylated; also called Human Nav1.7 paddle native
T12 peptide: TEFVNLGNVSALRT
As to the kind of experiment: SPR, captured antibody, peptide analyte. In a few lines:
as §3

Assay [18] addresses T13, N-term Biotin Nav1.7 (Paddle) peptide, human (human, not fully specified).
T13 construct: ELISA peptide
T13 peptide: Biotin-GGGGSTEFVNLGNVSALRT
As to the kind of experiment: ELISA on coated peptide, antibody 1 ug/ml, OD450 grade. In a few lines:
as §4

For assay [19], the target named is T14, N-Term Biotin Nav1.7 (Paddle) peptide, mulatta (mulatta (monkey), not fully specified).
T14 construct: ELISA peptide
T14 peptide: Biotin-GGGGSTEFVDLGNVSALRT
Described as above. In a few lines:
as §4

B1: H2M799N (antibody, V domains shown)
VH: EVQLVESGGGLVQPGGSLRLSCAASGFTFSIFWMNWVRQAPGKGLEWVAKIKQDGSEKYYVDSMKGRFTISRDNVKNSLYLQMNSLRAEDTAVYYCARGVWGSYRYTSSGLDVWGQGTTVTVSS
VL: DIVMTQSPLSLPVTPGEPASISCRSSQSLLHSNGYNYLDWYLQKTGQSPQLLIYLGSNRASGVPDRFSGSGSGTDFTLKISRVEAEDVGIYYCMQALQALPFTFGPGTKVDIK
notes: Hybridoma-derived
Turning to B1, the “Current blocking (Average % inhibition), IonWorks Quattro, 223 nM antibody” value in assay [1] was found to be 6%. Besides, the OD450 is less than 0.2 od in assay [2], less than 0.2 od in [3], 2 to 4 od in assay [9] and 2 to 4 od in assay [10]. Also, the Kd in assay [4] was determined as 9.93 nM; in [5], 4.14 nM; in [8], 0.815 nM. Further, the t1/2 in assay [4] worked out at 17.5 min; in [5], 27.4 min; in [8], 106 min. For the same molecule, the binding result in assay [6] and in assay [7] was “no binding” throughout. Besides, the “% Binding Nav1.7” value in [11] came to 5.7%.

B2: H4H468P (antibody, V domains shown)
VH: QVQLVESGGGVVQPGRSLRLSCTASGFTFSVYGIHWVRQAPGKGLEWVAVIWYDGSNKYYTDSVKGRFTISRDNSKNTLYLQMNSLRAEDTALYYCAREGDLSSSSGSGGYHYVVDVWGQGTTVTVSS
VL: AIQMTQSPSSLSASVGDRVTITCRASQDIRNDLGWYQQKPGNAPKLLIYSTSSLQSGVPSRFSGSGSGTDFTLTISSLQPEDFATYYCLQDYNYPLTFGGGTKVEIK
notes: also called REGN1064
Take B2: the dissociation constant Kd was determined as 630 nM in assay [12] and 47.2 nM in assay [15]. The values for the t1/2 in assay [12] and in assay [15] were 0.31 min and 1.3 min, respectively. Further, the binding result in assay [13], in [14] and in assay [8] was “no binding” in each case. In [16], the “% Binding Nav1.7 (Stable Line)” value came to 89.5%. Besides, the “% Binding Nav1.7” value in assay [11] was found to be 71.8%.

B3: H4H471P (antibody, V domains shown)
VH: QVQLVESGGGLVKPGGSLRLSCAASGVTFSDYYMTWIRQAPGKGLEWVSYISTDGRTIYYADSVKGRFTISRDNAKNSLYLQMNNLRAEDTAVYYCARGVDSDDYEDFYSYYDMDVWGQGTTVTVSS
VL: DIQMTQSPSSLSASVGDRVTITCRASQGISNYLAWFQQKPGKAPKSLIYAASSLQGGVPSRFSGSGSGTDFTLTISSLQPEDFATYYCQQYNSYPLTFGGGTKVEIK
On to B3, for which the dissociation constant (Kd) came out at 16 nM in assay [12] and 0.138 nM in assay [15]. For the same molecule, the t1/2 was 17 min in assay [12] and 743 min in [15]. For the same molecule, the binding result in assay [14] and in [8] was “no binding” in each case.

B4: H1M683N (antibody, V domains shown)
VH: QVQLVESGGGVVQPGRSLSLSCAASGFTFSNYGMHWVRQAPGKGLEWVAAISYDGNTKYYVDSVKGRFTISRDNSKNTLYLQMNSLRGEDMAVYYCVGARPGYDHYGMDVWGQGTTVTVSS
VL: DIQLTQSPSFLSTSVGDRVTITCWASQGISSYLAWYQQKPGKAPNLLIYTASTLQSGVPSRFSGSGSGTEFTLTISSLQPEDFATYYCQQLNSYPYTFGQGTKLEIK
notes: Loop specificity 2-1 (paddle)
Take B4: in assay [17], the Kd is 9.4 nM. Further, the t1/2 in [17] turned out to be 18 min. In [8], the binding result is reported as “no binding”. For the same molecule, the results for the OD450 in [18] and in assay [19] were 1 to 2 od and 0.2 to 1 od, respectively.
